Assay results from PMC10981699, “Caldomycin, a new guanidopolyamine produced by a novel agmatine homocoupling enzyme involved in homospermidine biosynthesis” (Scientific Reports, 2024).

Experiments:
[1] = substrate: N=C(N)NCCCCNCCCCNC(=N)N; experiment: urea release, Quantichrome urea assay; assay type: biochemical, Thermus thermophilus; conditions: assay as in ref. 26
Source text: urea release, Quantichrome urea assay on TtSpeBap (aminopropylagmatine ureohydrolase)

[2] = substrate: N=C(N)NCCCCN; experiment: homospermidine formation by HPLC, coupled with TtSpeBap; assay type: biochemical, Thermus thermophilus; conditions: 50 mM Tris-HCl pH 8.5, 1 mM NAD+, 10 µM MnCl2, 65 °C, TtSpeBap as coupling enzyme, agmatine is both donor and acceptor

Protein	Km [1] [µM]	Vmax [1] [µmol/min/mg]	kcat [1] [s⁻¹]	kcat/Km [1] [M⁻¹ s⁻¹]	Km [2] [µM]
TtSpeBap (aminopropylagmatine ureohydrolase) (Thermus thermophilus HB8) (protein) MRLVFGEKDTPYEEARVVVLPVPYDLSLSFLPGARRGPEAILLASRELEPFLLELGAAPEEVGIHAAEPVPWVAGMAEESHRLIREEALRHLRAGKWVVALGGDHSVTHPLVQAHREALGDFSLLHVDAHADLYPEWQGSVYSHASPFYRLLTEGFPLVQVGIRAMDRDSLRLARKKGVALFPAHRIHREGLPLDEILRALGKRVYISLDFDALDPSLMPSVGTPLPGGLSYRQVVDLLEAVFREKEVVGMDFVELSPNGQFHAEMTAAQLVYHAIGLKGLQAGWLSREVDHI	3840 ± 840	2920	1580 ± 230	419000 ± 32000	–
CdmS (caldomycin synthase) (Thermus thermophilus HB8; V6M) (protein, full-length gene in pET21b (NdeI/EcoRI), E. coli BL21(DE3) pLysS; no tag stated; heat treatment and Butyl column; 38 kDa on SDS-PAGE) MQKKELLSTPVVPIDIKAFDAGPILEAMGKTAFQARNLHRAAEIYLRMLEDDCAVILTLAGSLVSAGQGLIVHDLIRKGLVDVIVATGANIVDQDFFEALGHRHYQGDPRADDEALRRLWIDRIYDTYIDEEELRHTDYTVAEIADGLEPRPYSSREFIWHMGRYLAERGLGEKSIVRAAYEEGVPIFVPAFSDSSAGFGLVYHQVKRPEAHVTIDSVADFRELTEIKLKAGTTGLVMLGGGVPKNFAQDIVVAAEVLGHRVEMHKYAIQITVADERDGGLSGSTLSEAQSWGKVDARLSQMVFAEATLAFPLLASYVWHRAPARAKRRYAELFREKAPA	–	–	–	–	95 ± 6
